Measurements from patent publication US20120065134A1 (PHYLOGICA, published 2012).
Where no end group is shown, it is not given here. PEG = not defined here

B2: CD40 ligand (CD40L or CD154) (ligand)
chain: MQKGDQNPQIAAHVISEASSKTTSVLQWAEKGYYTMSNNLVTLENGKQLTVKRQGLYYIYAQVTFCSNREASSQAPFIASLCLKSPGRFERILLRAANTHSSAKPCGQQSIHLGGVFELQPGASVFVNVTDPSQVSHGTGFTSFGLLKL
modifications: biotinylated ('biotinylated phospho-CD40L') in the proximity assay as described in paragraph 342
notes: Species never stated; also called soluble CD40L; CD40L target protein

How the values were obtained:
[1] = target: B2; test: Alphascreen proximity assay, inhibition of CD40L-CD40 interaction
[2] = target: B2; test: Alphascreen proximity assay; peptide titrated, axis Phylomer (M); blocked ligand is CD40 (CD40-Fc on acceptor beads)
[3] = target: B2; test: cell-based or functional assay
[4] = target: B2; test: Alphascreen proximity assay, 0.75nM CD40L; peptide titrated; blocked ligand is CD40 (CD40-Fc on acceptor beads)
CD40 on primary B-cells = test: cell-based or functional assay
CD40L M8_748 = target: T1, CD40L M8_748; test: BLI, Octet Red (ForteBio), label-free
T1 construct: Base peptide, natural open reading frame

[5] = target: B2; test: cell-based or functional assay; remark: listed apart in the source
[6] = target: B2; test: Alphascreen proximity assay, inhibition of CD40L/CD40-Fc interaction, unmodified peptide
[7] = target: B2; test: BLI, Octet Red (ForteBio), label-free

B1: Cys_M1_6S (peptide)
peptide: CHPFSIKNVFSIWNFFSVY
modifications: a cysteine-containing linker (8-amino-3,6-dioxaoctanoyl type, FIG. 1b) may stand between Cys and the peptide; not stated for this molecule
notes: also called cysteine-containing derivative of M1-6S
EC50 [1]: 0.265 nM | IC50 (read off the curve) [2]: ~300 nM | EC50, inhibition of CD40L-induced CD86 expression on primary B-cells [3]: 306 nM | IC50 (read off the curve) [4]: ~300 nM

B2
EC50, induction of CD86 expression on primary B-cells by CD40L (CD40 on primary B-cells): ~9 nM | Kd (CD40L M8_748): 5 nM

LCEMIAIYVFLWKKVFL [CD40L M7_217]
EC50, inhibition of CD40L-induced CD86 expression on primary B-cells (FACS), unmodified peptide [5]: 2500 nM

{PEG}-DAAGREFFQIAGLFSFRHHWWQA (reading uncertain; also: PEG size and spacer not given here) [PEGylated CD40L M1_30s]
EC50, inhibition of CD40L-induced CD86 expression on primary B-cells (FACS), PEGylated peptide [5]: > 2000 nM

{PEG}-PRWVRNRFYSLFVPSGVQRGGIHLWFSNWVR (reading uncertain; also: PEG size and spacer not given here) [PEGylated CD40L M1_50s]
EC50, inhibition of CD40L-induced CD86 expression on primary B-cells (FACS), PEGylated peptide [5]: 30 nM

{PEG}-HPFSIKNVFSIWNFFSVY (reading uncertain; also: PEG size and spacer not given here) [PEGylated CD40L M1_6s]
EC50, inhibition of CD40L-induced CD86 expression on primary B-cells (FACS), PEGylated peptide [5]: 1.5 nM

{PEG}-HSFVLFGVNVPFNIIDFQMRVKS (reading uncertain; also: PEG size and spacer not given here) [PEGylated CD40L M1_42s]
EC50, inhibition of CD40L-induced CD86 expression on primary B-cells (FACS), PEGylated peptide [5]: 5000 nM

{PEG}-PPRYNLFFLFRFYSSFRRDYLYF (reading uncertain; also: PEG size and spacer not given here) [PEGylated CD40L M1_9s]
EC50, inhibition of CD40L-induced CD86 expression on primary B-cells (FACS), PEGylated peptide [5]: 180 nM

{PEG}-LPFVPYRSHVLKYGWFFPVQWSIFAVLPFQYLHRSR (reading uncertain; also: PEG size and spacer not given here) [PEGylated CD40L M1_18s]
EC50, inhibition of CD40L-induced CD86 expression on primary B-cells (FACS), PEGylated peptide [5]: 90 nM

B3: CD40L M8_747 (peptide)
peptide: LAEHAVWSLKCFPDWEWYNINIFGTDDPNHFWVECDGHGKILFPGYPEGYYENHFLHSFELED
EC50 [6]: 197 nM | Kd [7]: 8 nM
